Measured values: patent publication US20160355586A1 (published 2016)
Positions count from the first letter of the chain named.

B1: tetrameric antibody hu3G8VH-1 / hu3G8VL-1 (antibody, IgG1, V domains shown)
VH: QVTLRESGPALVKPTQTLTLTCTFSGFSLSTSGMGVGWIRQPPGKALEWLAHIWWDDDKRYNPALKSRLTISKDTSKNQVVLTMTNMDPVDTATYYCARINPAWFAYWGQGTLVTVSS
VL: DIVMTQSPDSLAVSLGERATINCKASQSVDFDGDSFMNWYQQKPGQPPKLLIYTTSNLESGVPDRFSGSGSGTDFTLTISSLQAEDVAVYYCQQSNEDPYTFGQGTKLEIK
notes: VH on human Cgamma1 constant region (IgG1)
B2: tetrameric antibody hu3G8VH-22 / hu3G8VL-1 (antibody, IgG1, V domains shown)
VH: QVTLRESGPALVKPTQTLTLTCTFSGFSLSTSGVGVGWIRQPPGKALEWLAHIWWDDDKRYSPSLKSRLTISKDTSKNQVVLTMTNMDPVDTATYYCARINPAYFAYWGQGTLVTVS
VL: B1 VL
notes: VH on human Cgamma1 (IgG1)
B3: tetrameric antibody hu3G8VH-5 / hu3G8VL-1 (antibody, IgG1, V domains shown)
VH: B1 VH with R99Q
VL: B1 VL
notes: VH on human Cgamma1 (IgG1)

Biological target: T1, CD16A (human, UniProt P08637 17-208, limits assumed)
T1 construct: Target of the hu3G8 VH/VL variant screen of section 5.1.2; also called FcγRIIIA
T1 sequence (P08637 17-208 limits assumed): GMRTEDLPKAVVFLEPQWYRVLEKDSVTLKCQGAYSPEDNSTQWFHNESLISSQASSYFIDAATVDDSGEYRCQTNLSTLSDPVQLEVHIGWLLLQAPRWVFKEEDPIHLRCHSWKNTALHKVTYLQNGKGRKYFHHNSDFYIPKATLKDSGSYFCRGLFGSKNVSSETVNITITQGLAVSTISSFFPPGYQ
Assay: tetrameric IgG1 with hu3G8VL-1 light chain; binding to CD16A, method not named

Binder | binding result
B1 | binds
B2 | binds
B3 | binds
